Laboratory results: patent US20110143379A1 (Johns Hopkins, published 2011)

Target: T1, albumin (in whole human plasma) (human, UniProt P02768 25-609)
T1 construct: Endogenous plasma protein, not a purified reagent
Assay: ethanol precipitation of human plasma spiked with TRX; fractions followed by western blot

T1 sequence (P02768 25-609 limits assumed): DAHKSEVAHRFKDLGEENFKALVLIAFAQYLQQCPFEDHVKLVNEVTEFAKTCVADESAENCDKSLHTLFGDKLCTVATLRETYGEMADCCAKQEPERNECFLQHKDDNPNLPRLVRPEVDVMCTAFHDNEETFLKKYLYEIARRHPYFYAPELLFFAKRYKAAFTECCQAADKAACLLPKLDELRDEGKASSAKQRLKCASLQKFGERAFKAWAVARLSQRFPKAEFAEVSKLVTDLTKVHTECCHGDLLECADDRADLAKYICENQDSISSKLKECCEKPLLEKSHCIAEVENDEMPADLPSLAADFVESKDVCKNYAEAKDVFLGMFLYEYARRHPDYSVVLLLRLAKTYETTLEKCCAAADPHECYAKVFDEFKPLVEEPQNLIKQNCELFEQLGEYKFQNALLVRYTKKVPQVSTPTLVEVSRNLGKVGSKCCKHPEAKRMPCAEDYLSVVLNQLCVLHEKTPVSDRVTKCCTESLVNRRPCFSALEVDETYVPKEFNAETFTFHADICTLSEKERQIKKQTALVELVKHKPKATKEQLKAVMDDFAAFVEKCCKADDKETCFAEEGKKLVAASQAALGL

- binding result: binds
B1: recombinant human thioredoxin (TRX), full length (enzyme)
chain: VKQIESKTAFQEALDAAGDKLVVVDFSATWCGPCKMIKPFFHSLSEKYSNVIFLEVDVDDCQDVASECEVKCMPTFQFFKKGQKVGEFSGANKEKLEATINELV
notes: It was denatured on SDS gels for the western blots; also called full-length thioredoxin
